Laboratory results reported in the NTF2 design screens of Basanta et al. (2020).

Experiment: protease stability score; higher = more stable; yeast display proteolysis, trypsin and chymotrypsin;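 also: relative to predicted unfolded state with 0 unfolded-like and 1 meaning tenfold more protease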

Compared with “SEEEEQSRKIFRLLYKVIETGDEDIFTKLFDPHARLIYNGKEYIGWEEAVQVLRHIRIDREELSVVRINNVNGQVHIHSVSRMDGEINGVEHHTRVELNFIVIKINGRWVIHTWEIRID”, “DEEKRRASELIIHLWHNFLTGNEDRFRELFDPNVKAKLDVGDKSVDHIGRDHVLDWLRLVRHEIRIHHYEHKRERVYGDKWESDGHVDGEFNGRRTETHFEIILVIIDGKLHFLILNFH” is lower in protease stability score: 2.35 for the first, -0.076 for the second.

Compared with “DEEEHKSKLAVELWHKVEETGDENTMKRLADPNVRIDINGVELHGMEVLVRRLREMGADHFHVDLRRVTVVNGRVHVNTEVIIRQGDKVIILTTRLHIEKVDGRWKITTIEFE”, “TEEQTHLIRLIEQFVRDEITGNWKSVLKLLDPEVKVILKINGREIHLHGREEITRWVHEWVRHIRVFIEIHHSRAFDGVVEMDTRIIIDIDGVHLSQETRINIYVVDGVLKSMEIHVK” is higher in protease stability score: 1.32 for the first, 1.65 for the second.

Compared with “DEKDEHMENLMREFMHSTLTGDEELLERMADPHVKVIVNGKELIGRESWRKWLEELEKRFKHAKFIWLLHRVDVQGEKANSDGVRRINFDGVNINLKTHIFIHVVNGKLKEIEIHDK”, “SEDEEYLKRALELWDELVKTGDEHRSRRLFDPNARLEIGDKEYHGREEVTHMLRWLIKEIRVHSVTLKDFRSQGDKLIADTRQNREYNGKSDNVSLIMIIIKVDGRWLIESIKIE” is higher in protease stability score: 1.33 for the first, 1.41 for the second.

Going from “SDHEHMILHYARHVLELWFTGDWEIFEKLADPRAKMTVNGQELHGRESVSKWMHDKKEEIRMRDLRIHHIDVQGDFVILHLRVDFEVNGQRIDTHIEIYILVVNGQLREIEIREK” to “DDDHKVAEKMNDTFLRLFLTGDFERLWELADPHVRILFNGVEFHGREQMSTVIEHHLRQMRVHDVTIEHITWQGDKLHVHSILRTRVGDKKVDDHIEVNILKVDGKWIVKEVKIL”, the protease stability score rises from 0.853 to 2.01.

First: DDWLEDTKRLLEEFRQAINTGDEELLKILFDPHVRMNIDGVELHGRSVLEHFLERYDVIKVRRHHITDLKFQGNYLIIHLKTDIQIDIGDKHYKEEREVEMVVEKVNGRWIIRLMTER
Second: DEEDEIAEKIMRIILRAFTTGDEETVEKLVDPHARLEFNGRETHGRESWFKLMHHLRIRRMRIHNERIHTQGDFSLSHVRIEFDGEINGKRVEDETRMEIRVIVVNGVVKSVSLSTE
The protease stability score of the first is higher: 1.4 for the first, 1.35 for the second.

Compared with “SEHEEEVKHFIELIVHFLKTGDEDHLAKMADPHVRLHIGDKEFHGREDFSKWVHLLLHHWRLKTFILRRVHVQGEKAHIDGQLDFDVDGKKTLLDVHLTVRKIDGRWFIETVIDG”, “NDLERDAEHMLKLLIEAHLTGNEDIFEEFMDPNTRLVVGDKDNHGREFAEDYFKEWRVKHVRLKHYRSIGNYVEFDTETNVHVNGRDIRTETKITIVKIDGRWLLKVLIFG” is lower in protease stability score: 2.35 for the first, 1.72 for the second.

Compared with “DEEDEYVEKATRFFIKSILTGNEEWVSRLADPHVRLWVGDKEFHGRERYVRVFHEHMRQIRYRDFKLHDIDRQGDKIIVIGRREVEVDGRIDTYEIHIYARKINGRWILESEIVN”, “DSDEEATKDFLEILIKLEMTGNEEEMRKMLDPNVRLIIDGVNLHGREALNVYLERFKNIQVEEIRIRHIEFQGEKVKIDYEWTVRINGRHHHQRTTIILIKYDGRWIIHMIHWH” is higher in protease stability score: 0.936 for the first, 2.55 for the second.

Going from “DEEEEFATRIMKILLKALLTGDETTLKHLIDPHTRFIFVIGEKIVHVHGRDEIAKFWETLRREIRIEDITIDRIRVQGEKVETDGYIHIWIGDKLVDVESHDEWVIVNGRIKHIRMEIK” to “DHVEHEVENVLRKTLHSFLTGDFELLHRLADPHVRSDINGVEIHGWEKLSKWILTLIEQVDHSEFDLKDIRLQGDFVRIHGELILRFNGKHIEIRVQSHVEKIDGRWVIHAVKLK”, the protease stability score falls from 1.93 to 1.11.

Compared with “DEKEELVEYFWEVFLKSLRTGNWHEFVKMFDPDAKSHINGVHSIGRDHIATLILREHEEIRYTEIRERHIEVQGDKIHVHTEVDMFVGDKRIRTERHIHITIVNGRIKSMRVEIR”, “DEREEESKRATEKVTRDIHTGDEDLHRHLLDPNAKLVFNGREFVGREEVEKILKWFLDRAGVDKINMTIHDVRVVDGRIKLDGRNNINGVEYTVIWISEKYNGRWFDRMIIFS” is lower in protease stability score: 0.958 for the first, 0.493 for the second.

Going from “NEEEELLHRLAKRFIELFLTGDWEVMEKLFDPHVKIDVNGRESHGREQVWHLLMHLLHELRIHHILIRSFDVFDGRAHSSVEVNGEFNGKRDLTEAEVVIVSVDGKMKSVSIKLR” to “SETDESSRVASELMREWLETGDEEVISELADPHVRFDWNGRRDIGRHSYLEFMHMLRRHMGIKHIEFKRIEVHVINGVVHVNITGILHFNGVQLTTHIHIHAEKIDGRWILKQSHYDTE”, the protease stability score falls from 1.23 to 0.751.

First: SEDEEVMKRAHELSARVMKTGDEETFRELADPDVRRNVNGVVRHGMENVIHLLRILFDEIRPRHFELTHMEVQGDKVRMEIRNDVRIGDKEVQLRVILIASKVNGRWHLQEVHVE
Second: DEEDKNTHEFARRIIESWVTGDWKDLHELIDPHARLILDVGNKKEIYHGREEVKRRLLREIEKFKNVRFEIRDLHVVGDKVDAEVTLHIDGKDIEIHIHLLIVNGKVKEIRLHYH
The protease stability score of the first is lower: -0.496 for the first, 2.27 for the second.

First: DEEKDEVREIAERIFHNLRTGDEEKLKHLIDPHVRFEYGDKEHHGWEEMVHFLREWRIHHIHIRDIKVYDGVAHVNGEVDGKFNGRRFRSDTWVIIVTINGRVKQISIQIN
Second: SETEEITERWLRLALEALRTGDFEFISRLADPHVRSEYNGVEFIGREEMVRFEEERLERLGATPSDLITRDVEFQGNKVIIHQEMEMRVGDKRHTNETTIFSHKFDGRWILHSIKFH
The protease stability score of the first is higher: 1.33 for the first, 0.984 for the second.

Going from “SEKDERVHELLRHVEHALRTGDWEEMVKLADPHVRVIFNGKTLHGREMMNRFWEHFGADHIRIRDEDDYNGVVIVHIETVVGDKHHHVHIISEKIDGKWTMRELSIE” to “DKTTEEAERDAREVTRLHRTGDEEYLEKYFDPHVKLEFNGRDVHGMELASEILKKVRRDLGVDHIEVKHVELDVQGEWIHVHLNLRVFFDGRETRYEYNVHVRKIDGKWIIKHVIVRVS”, the protease stability score rises from 0.933 to 1.34.

First: DELEKLLEHMLRLMNELLETGDWDWIMSLADPHTKFRLDINGVEHIDHGWEFLHKRIEELGADHREFRVRDIHTQGDKVHSEGEHLIRVNGKEIHIDVRIILLVVNGKVKEIEVRFK
Second: DEDLRMAFEMVRISDHEIDTGDEDSWTKLFDPHVRIRFPGRMLHGREYLHYVLKHARIHYDDSELKDVKFVGNKLLVDVHVRGTFFIDGQNIHTEVKRIHMIEKYNGKWKTTEMEIK
The protease stability score of the first is higher: 1.7 for the first, 0.469 for the second.

First: DEEERISEELFNFITKHWLTGDFDAVRNRLDPNVRYLINGREWHGREYARHLASHLRVERVKIENFEIQGNKITFDTRMDGEFDGQHIDVKTIIIFVKIDGKWLLHEFVIH
Second: SESEDQAHKFSEEWIKAFETGDEEHMNRLVDPNVRIEVGDKEHHGRHVYLEILKRLGANHVRIHIEDIEVQGEKLIIHGKIIITVGDKVIEIRTIIIVTKIDGRWRIKDIIFH
The protease stability score of the first is lower: 1.34 for the first, 1.39 for the second.

Going from “SEEEEEMKLAKRLLENISETGDERELEELLDPNVRIVIGDKHEHGRESVEHWFRRIDHIKHFEIERVTVFDGRVEMHGRMVGTINGKHKNTRITLIAVKINGRWVLQHRILE” to “DDLDRYAEEAEKRHYENLETGDENRLQENADPHTRMDFNGRKFHGMDHNYHWMRKIREDLGVDNIRIHIHHMSVVDGVLHLDLIIRYGDKELRLHFVSEKINGRWRLKEVYYK”, the protease stability score rises from 0.245 to 0.855.

Compared with “SEREKHSKELNEHMIQLFETGDEDLLIRMADPHVRVIQGDKEYHGRHWYEKIFHDFVKQAQNARFEIHDVKIQGEKLIIHGKMEWNGKRHEVEWYFDIVDGRIKEEEIRIR”, “DHDDEMLEHFMNLWLHAVATGDEELLSNLLDPNVREIINGKTIHGREEFLKLYHELARRIDHIHIRVRWYDMQGEFLISKTEIEFRFNGVNLKFETKMIVLKINGKWILHSIRFE” is higher in protease stability score: 0.943 for the first, 1.26 for the second.

Going from “SEDEEISERALRHVYKHLKTGDEDNFQKNFDPHVRFEAENVEFHGREASEHLSKRIDVIHRIIIRHHTIYNGVIVIHGEVDGEFNGKRDRDIVTIYYVKVNGQWQIRELKIG” to “SEDTRLKEEFLRRVLESEHTGDFESLQEMLDPNTRIEFNGQELIGREEAERILHQARIHDVKIKSMRLIDGRIELNGVLDGNFNGRRRHLEVRIYITKIDGRWVLESIEIE”, the protease stability score rises from 0.891 to 1.49.

Compared with “HDDHESADKFIREEIEYQRTGDWHRFEELLDPDVRLEQGNYHAHGREEVSTIFLMHLTRVKNMRMEVTRMEIINGRLSLHLKLDFNGREFHFSTIVQKVNGKWIIKAEHFI”, “DEKEEILRQIMELMLRLLLTGDEDRLTELIDPNVRVVFEGRTYHGMDEVTELWKEIRIDSFRFRDVKNVGDKARLHGEQKVRVGNYSHEHKSEYQLFVVNGRAKSLEIRWH” is higher in protease stability score: 0.507 for the first, 1.31 for the second.

First: DEEDEMAISLAKLFVDDLMTGNWRSLQHLLDPHTRLHVGDKEHHGRQKSVEWLKDLVRRIDHLEMDIHRLDVQGEKAESETESNVNIGDKEVRYHMELIILVVNGRVKEIEIRLG
Second: DDIKHEILRLMQLAFHYWETGDWEHFHHLADPHVRIDLDFNGKRLDLHGRDELQRVLEEELKRIDHFELHVTSLTDQGNKAELHGHRHIHQGDKRIDVRVINILIVVDGRIKTYSVHIR
The protease stability score of the first is higher: 0.941 for the first, 0.909 for the second.

Compared with “DEDEHMVKHAIELILKSIITGDEDLWKRLFDPDVKIEVGDKDVHGRELATEFMKLWRDHMRFTHHEITRVETYNGRAHIHGRDRVTIDGQEMTRESHLVMIKVDGRWFLHSVHIK”, “DEERKETEEATRQDIHDFRTGDEKSFDEFFDPNVRLDINGVRVHGRELASKWFRDFFRELGVKHSEIEHREIQGEKAIVNEDVRVGDKRVEVILVYLKINGRWEITTVTLRHE” is lower in protease stability score: 1.07 for the first, 1.05 for the second.

Going from “SEEERLYEHAWKLYIHDFITGDEKSHSRLADPHTQMIIGDKLLIGREEFVKWMKHLLDQVKNITVEHVKIRHEHYQGDKAHIDVEEEIHFNGQRHKRRVILTILKVNGRWSIESVEYT” to “DEDEKYEEHYVEMFLRWLQTGDEDQIERNADPNVRLDVNGRDIIGWENIIEHIRQIKNLRIQIRRVRVVDGRSIVDIRVEVNGKRHEVNLIVIIINGKLKEVKFEFR”, the protease stability score rises from 0.898 to 2.71.

First: DETTKLTEELLRLIWEVLITGDEHLFERLADPHVRVDEIYGDKRIELHGRERVSTRLHELRIKRVELKEIEVFNGRSHANTHVNGHIDGVTFRSDTRWEFVMIDGKLEEVRRKIE
Second: DEEDREAHEAIRILIDLLRTGDFDSLTRLADPHVRLDIGDKRLHGMKDFSRWILELRIHNFDLRHFDLVGDKIHVEGSLHTEFNGKHHEIHIQINITKVNGRWKIDEVTSL
The protease stability score of the first is lower: 0.597 for the first, 1.63 for the second.

Compared with “DEDKKITDRAFEIFIHNLYTGNEEDLHELADPNVRHIYGDWNVHGMELMTHVLWEIRMKRLNEHDLEIHIINGRAIIDLDGELDGEVNGRRHHRRIIIHVFALKIDGRWHLESMEVKTK”, “TEDEDVLKEATRLFVEALKTGDWDHMRRLIDPNARVTQGDKEIHGMEDTVKIRRHLYEKWGVERVEMRIHDMEYQGDKLKVDMELQIGDKHKRIELVLRKVDGQWIIERIRYT” is lower in protease stability score: 1.35 for the first, 0.528 for the second.

First: DHEEKKAKELLHLIVELLITGDEDTLSRLLDPNTRWIINGRHLHGMHVFEEWVRRLKEQYKGVTVHIEIEDSKVVGEKARSEIRLIINIGDKVHDIESRLEIVVIDGKMRSLRFEFK
Second: DERERDARKAVKDFIESIRTGDEDEIEKLLDPHVRVDAPNHERHGREEVVEELREMRIEIRDVRFRHIHVQGNKIEVHVRVHGSLMINGREYRIDTTMIIIMEKIDGRWILTHIEEK
The protease stability score of the first is lower: 1.19 for the first, 1.62 for the second.
